Assay results: patent publication US11643691B2, “Predictive biomarkers for cancer immunotherapy and methods of using same” (Duke University, priority 2018, dated 2023)

Key:
DCs = assay: BODIPY and fatty acid uptake assay; type: cell-based, Murine; conditions: TF2-C12 uptake, BODIPY
Protocol: BODIPY and Fatty Acid Uptake Assay: DCs were stained in 0.5 μg/ml BODIPY 493/503 in PBS for 15 min to determine neutral lipid content (Herber et al., 2010). Fatty acid uptake measurement in DCs were performed using a dodecanoic acid fluorescent TF2-C12 fatty acid (Sigma) according to the manufacturer's protocol.

[1] = test system: BRAF^V600EPTEN^−/− melanoma cell line; assay: Qrt-PCR of chemokines in melanoma cell line after rWnt5a; type: cell-based; conditions: vs vehicle ctrl
Excerpt: (A) TCGA melanoma database gene expression association analysis of CXCL5, CXCL2, and CXCR2 with WNT5A. (B) Whole tumor tissue Western blot analysis of Wnt5a, nuclear Yap-1, CXCL5 and β-actin (loading control). Representative blot shown (n=3). (C) Plasma CXCL5 ELISA following anti-PD-1 ab therapy vs IgG isotype ctrl therapy in the transgenic BRAF^V600EPTEN^−/− melanoma model (n=5). bottom, plasma CXCL5 dot blot following anti-PD-1 ab therapy vs IgG isotype ctrl therapy in the transgenic BRAF^V600EPTEN^−/− melanoma model. Representative of 3 independent experiments. pseudo-red reflective of density. (D) Qrt-PCR analysis of Cxcl5, Cxcl2, and Cxcl1 in the BRAF^V600EPTEN^−/− melanoma cell line following treatment with recombinant Wnt5a (rWnt5a) vs vehicle ctrl (n=3). (E) Western blot analysis of Yap-1 expression in total cellular lysates (top) and nuclear lysates (middle) following treatment of BRAF^V600EPTEN^−/− melanoma cells with rWnt5a at various time points. β-actin, total lysate loading ctrl. […], nuclear lysate loading ctrl. (bottom) rWnt5a induction of CXCL5 in the absence and presence of verteporfin (YAP inhibitor) or XAV939 (β-catenin inhibitor). All representative of 3 independent experiments. […]

B1: Wnt5a: Recombinant Human/Mouse Wnt5a Protein (R&D Systems) (protein, UniProt P41221 62-380, looked up)
Protein Wnt-5a: IIGAQPLCSQLAGLSQGQKKLCHLYQDHMQYIGEGAKTGIKECQYQFRHRRWNCSTVDNTSVFGRVMQIGSRETAFTYAVSAAGVVNAMSRACREGELSTCGCSRAARPKDLPRDWLWGGCGDNIDYGYRFAKEFVDARERERIHAKGSYESARILMNLHNNEAGRRTVYNLADVACKCHGVSGSCSLKTCWLQLADFRKVGDALKEKYDSAAAMRLNSRGKLVQVNSRFNSPTTQDLVYIDPSPDYCVRNESTGSLGTQGRLCNKTSEGMDGCELMCCGRGYDQFKTVQTERCHCKFHWCCYVKCKKCTEIVDQFVCK
DC fatty acid uptake and lipid stores (DCs): enhance DC fatty acid uptake and lipid stores | expression of Cxcl5, Cxcl2 and Cxcl1 [1]: increased expression of Cxcl5, Cxcl2, and Cxcl1
